For this series, the target named is DNA polymerase gamma catalytic subunit p140, Exo- R964C (Homo sapiens, UniProt P54098 26-1239, D198A;E200A;R964C). The series can be described thus: EMSA. In general terms: In EMSA bound probe runs differently from free probe, usually more slowly.
Chain of DNA polymerase gamma catalytic subunit p140, Exo- R964C (P54098 26-1239 D198A/E200A/R964C): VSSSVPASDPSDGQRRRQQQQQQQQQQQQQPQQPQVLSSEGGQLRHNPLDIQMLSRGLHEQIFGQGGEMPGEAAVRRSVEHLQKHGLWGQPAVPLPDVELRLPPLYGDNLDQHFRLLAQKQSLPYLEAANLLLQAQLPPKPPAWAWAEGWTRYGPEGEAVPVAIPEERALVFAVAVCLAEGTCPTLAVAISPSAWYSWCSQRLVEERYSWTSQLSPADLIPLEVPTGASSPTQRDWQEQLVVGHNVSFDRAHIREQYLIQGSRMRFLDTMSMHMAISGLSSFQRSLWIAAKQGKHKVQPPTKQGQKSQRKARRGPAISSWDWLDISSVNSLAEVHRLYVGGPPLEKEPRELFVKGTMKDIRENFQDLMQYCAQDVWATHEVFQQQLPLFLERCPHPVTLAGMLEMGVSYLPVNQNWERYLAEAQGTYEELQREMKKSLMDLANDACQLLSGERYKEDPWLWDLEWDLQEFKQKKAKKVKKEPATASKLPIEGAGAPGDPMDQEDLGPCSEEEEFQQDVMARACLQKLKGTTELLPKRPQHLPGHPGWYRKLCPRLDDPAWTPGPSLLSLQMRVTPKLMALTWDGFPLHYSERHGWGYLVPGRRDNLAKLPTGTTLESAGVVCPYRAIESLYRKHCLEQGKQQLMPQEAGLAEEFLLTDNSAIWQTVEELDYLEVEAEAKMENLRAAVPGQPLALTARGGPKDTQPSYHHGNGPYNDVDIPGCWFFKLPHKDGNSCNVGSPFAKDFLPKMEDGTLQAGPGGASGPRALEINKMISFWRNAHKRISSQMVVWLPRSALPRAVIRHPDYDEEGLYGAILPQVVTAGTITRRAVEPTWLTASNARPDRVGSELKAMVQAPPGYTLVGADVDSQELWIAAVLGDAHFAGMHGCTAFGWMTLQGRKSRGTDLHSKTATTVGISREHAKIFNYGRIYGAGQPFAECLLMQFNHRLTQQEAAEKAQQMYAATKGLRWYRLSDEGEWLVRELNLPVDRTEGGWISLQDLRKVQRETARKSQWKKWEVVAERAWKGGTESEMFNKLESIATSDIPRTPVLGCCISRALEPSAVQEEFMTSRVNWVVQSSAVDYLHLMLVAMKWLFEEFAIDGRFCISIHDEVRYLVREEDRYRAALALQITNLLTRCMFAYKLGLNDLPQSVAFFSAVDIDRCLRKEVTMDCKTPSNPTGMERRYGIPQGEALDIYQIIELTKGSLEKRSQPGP

B1: 38-mer/34-mer primer-template (dsDNA)
DNA 1: TTATCGCACCTACGTTCAATATTACAGGCGAACATACT
DNA 2: GTATGTTCGCCTGTAATATTGAACGTAGGTGCGA
A word on the Kd: it is a measure of binding affinity in units of concentration. Lower therefore signals a tighter complex. In turn, B1 showed a Kd of 75 ± 4 nM.
